Laboratory results published in paper PMC10215022.

Experiments:
[1] = target: SARS-CoV-2 Omicron (B.1.1.529) spike protein, plate-bound (MSD V-PLEX) (SARS-CoV-2 Omicron (B.1.1.529)) (UniProt P0DTC2)
[2] = target: SARS-CoV-2 Omicron (B.1.1.529) spike protein RBD, His-tagged (SARS-CoV-2 Omicron (B.1.1.529)) (UniProt P0DTC2); assay: SPR

REGEN-COV mAb cocktail (casirivimab and imdevimab at 1:1 molar ratio)
IC50 [1]: 13 nM

casirivimab (REGN10933) (antibody)
Kd [2]: 1200 nM
